Experiment [1] addresses T1, SUVH1 (Arabidopsis thaliana, UniProt Q9FF80 1-670).
T1 sequence (looked up): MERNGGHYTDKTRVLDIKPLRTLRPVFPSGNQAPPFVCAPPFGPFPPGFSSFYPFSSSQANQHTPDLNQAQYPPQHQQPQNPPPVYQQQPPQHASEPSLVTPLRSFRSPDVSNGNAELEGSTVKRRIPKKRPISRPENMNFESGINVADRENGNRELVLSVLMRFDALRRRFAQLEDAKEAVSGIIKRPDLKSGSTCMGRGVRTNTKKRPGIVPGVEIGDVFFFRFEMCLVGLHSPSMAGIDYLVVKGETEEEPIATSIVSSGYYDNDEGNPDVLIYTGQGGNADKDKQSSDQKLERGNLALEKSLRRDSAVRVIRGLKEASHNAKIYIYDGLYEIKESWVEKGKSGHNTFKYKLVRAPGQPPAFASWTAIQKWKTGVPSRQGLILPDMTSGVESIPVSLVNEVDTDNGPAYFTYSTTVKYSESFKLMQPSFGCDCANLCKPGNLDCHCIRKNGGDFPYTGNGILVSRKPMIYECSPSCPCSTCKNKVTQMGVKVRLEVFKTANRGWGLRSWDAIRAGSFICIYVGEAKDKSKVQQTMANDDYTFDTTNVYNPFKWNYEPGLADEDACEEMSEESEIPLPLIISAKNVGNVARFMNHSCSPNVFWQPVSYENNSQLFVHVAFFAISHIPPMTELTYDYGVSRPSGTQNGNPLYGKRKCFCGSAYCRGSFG
The experiment is described as follows: pull-down.

The target of experiment [2] is T2, GST-SUVH3 (Arabidopsis thaliana, UniProt Q9C5P4 1-669).
T2 sequence (looked up): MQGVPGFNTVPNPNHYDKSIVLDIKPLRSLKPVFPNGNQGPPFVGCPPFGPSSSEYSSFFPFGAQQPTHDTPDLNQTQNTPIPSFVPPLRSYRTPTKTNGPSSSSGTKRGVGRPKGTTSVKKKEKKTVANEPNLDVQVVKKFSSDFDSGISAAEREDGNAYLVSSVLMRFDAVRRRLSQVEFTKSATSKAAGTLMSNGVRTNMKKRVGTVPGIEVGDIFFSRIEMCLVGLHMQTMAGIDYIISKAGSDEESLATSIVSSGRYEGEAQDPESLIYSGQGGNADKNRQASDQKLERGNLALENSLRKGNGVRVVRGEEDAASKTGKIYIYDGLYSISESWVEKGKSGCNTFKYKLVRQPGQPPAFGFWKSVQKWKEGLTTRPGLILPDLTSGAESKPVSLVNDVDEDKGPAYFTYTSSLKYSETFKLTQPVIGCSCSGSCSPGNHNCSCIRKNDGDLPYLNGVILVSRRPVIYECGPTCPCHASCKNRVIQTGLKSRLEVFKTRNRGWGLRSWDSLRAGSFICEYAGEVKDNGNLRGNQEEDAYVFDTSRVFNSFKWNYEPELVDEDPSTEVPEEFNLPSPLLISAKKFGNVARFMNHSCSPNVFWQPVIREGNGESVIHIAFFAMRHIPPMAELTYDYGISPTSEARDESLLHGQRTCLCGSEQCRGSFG
The experiment is described as follows: pull-down.

B1: His-LEC2 (natural protein, Arabidopsis thaliana, UniProt Q1PFR7 1-363, looked up)
chain: MDNFLPFPSSNANSVQELSMDPNNNRSHFTTVPTYDHHQAQPHHFLPPFSYPVEQMAAVMNPQPVYLSECYPQIPVTQTGSEFGSLVGNPCLWQERGGFLDPRMTKMARINRKNAMMRSRNNSSPNSSPSELVDSKRQLMMLNLKNNVQISDKKDSYQQSTFDNKKLRVLCEKELKNSDVGSLGRIVLPKRDAEANLPKLSDKEGIVVQMRDVFSMQSWSFKYKFWSNNKSRMYVLENTGEFVKQNGAEIGDFLTIYEDESKNLYFAMNGNSGKQNEGRENESRERNHYEEAMLDYIPRDEEEASIAMLIGNLNDHYPIPNDLMDLTTDLQHHQATSSSMPPEDHAYVGSSDDQVSFNDFEWW
As for B1, the binding result in experiment [1] and in experiment [2] was “binds” each time.

These data come from article PMC12056068 (Nature Communications, 2025).
